This assay addresses T1, wild-type tau (441 amino acids; tau441; NP_005901.2) (human, UniProt P10636 1-758).
T1 construct: Unphosphorylated recombinant tau441 used in the wild-type tau ELISA; also called wt tau441; wtTau
The assay is described as follows: wild-type tau ELISA, 293 cell supernatant.

The record followed here is patent publication US20220339270A1 (published 2022).

T1 sequence (P10636 other isoform, or with tags, fused parts or gaps limits assumed): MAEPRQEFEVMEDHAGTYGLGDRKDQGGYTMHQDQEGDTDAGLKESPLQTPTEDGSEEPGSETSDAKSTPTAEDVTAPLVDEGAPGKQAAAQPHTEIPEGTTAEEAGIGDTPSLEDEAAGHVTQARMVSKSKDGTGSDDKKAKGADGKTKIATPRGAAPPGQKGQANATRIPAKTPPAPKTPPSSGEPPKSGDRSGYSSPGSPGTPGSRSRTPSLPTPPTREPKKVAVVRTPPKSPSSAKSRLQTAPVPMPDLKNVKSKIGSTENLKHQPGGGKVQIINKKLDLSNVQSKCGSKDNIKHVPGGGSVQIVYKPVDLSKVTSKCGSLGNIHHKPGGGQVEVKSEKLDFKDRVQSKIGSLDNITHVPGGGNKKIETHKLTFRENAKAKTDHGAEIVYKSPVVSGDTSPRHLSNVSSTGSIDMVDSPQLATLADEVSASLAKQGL

B1: IPN002 scFv-HA expressed from TAU_ITR153 (CAG, LH, (G4S)4) (scFv)
scFv: DVLMTQTPLSLPVSLGDQASISCKSSQSIVHSNGNTYLEWYLQKPGQSPKLLVYKVSNRFSGVPDRFSGSGSGTDFTLKISRVEAEDLGTYYCFQGSLVPWAFGGGTKLEIKGGGGSGGGGSGGGGSGGGGSEVHLVESGGALVKPGGSLKLSCAASGFSFSKYGMSWVRQTPDKRLEWVATISSSGSRTYYPDSVKGQFTISRDNAKNTLYLQMSSLKSEDTAMYYCSISWDGAMDYWGQGTSVTVSS
notes: also called CAG-IPN006-LH-G4S4
In the case of B1, the binding result was “binds”.

B2: IPN002 scFv-HA expressed from TAU_ITR141 (CAG, HL, (G4S)5) (scFv)
scFv: EVHLVESGGALVKPGGSLKLSCAASGFSFSKYGMSWVRQTPDKRLEWVATISSSGSRTYYPDSVKGQFTISRDNAKNTLYLQMSSLKSEDTAMYYCSISWDGAMDYWGQGTSVTVSSGGGGSGGGGSGGGGSGGGGSGGGGSDVLMTQTPLSLPVSLGDQASISCKSSQSIVHSNGNTYLEWYLQKPGQSPKLLVYKVSNRFSGVPDRFSGSGSGTDFTLKISRVEAEDLGTYYCFQGSLVPWAFGGGTKLEIK
notes: also called CAG-IPN0010-HL-G4S5
Consider B2, for which the binding result is recorded as “binds”.

B3: IPN002 scFv-HA expressed from TAU_ITR154 (CAG, LH, (G4S)5) (scFv)
scFv: DVLMTQTPLSLPVSLGDQASISCKSSQSIVHSNGNTYLEWYLQKPGQSPKLLVYKVSNRFSGVPDRFSGSGSGTDFTLKISRVEAEDLGTYYCFQGSLVPWAFGGGTKLEIKGGGGSGGGGSGGGGSGGGGSGGGGSEVHLVESGGALVKPGGSLKLSCAASGFSFSKYGMSWVRQTPDKRLEWVATISSSGSRTYYPDSVKGQFTISRDNAKNTLYLQMSSLKSEDTAMYYCSISWDGAMDYWGQGTSVTVSS
notes: also called CAG-IPN007-LH-G4S5
In the case of B3, the binding result was “binds”.

B4: IPN002 scFv-HA expressed from TAU_ITR142 (CAG, HL, (G4S)6) (scFv)
scFv: EVHLVESGGALVKPGGSLKLSCAASGFSFSKYGMSWVRQTPDKRLEWVATISSSGSRTYYPDSVKGQFTISRDNAKNTLYLQMSSLKSEDTAMYYCSISWDGAMDYWGQGTSVTVSSGGGGSGGGGSGGGGSGGGGSGGGGSGGGGSDVLMTQTPLSLPVSLGDQASISCKSSQSIVHSNGNTYLEWYLQKPGQSPKLLVYKVSNRFSGVPDRFSGSGSGTDFTLKISRVEAEDLGTYYCFQGSLVPWAFGGGTKLEIK
notes: also called CAG-IPN0011-HL-G4S6
As for B4, the binding result is recorded as “binds”.

B5: IPN002 scFv-HA expressed from TAU_ITR139 (CAG, HL, (G4S)3) (scFv)
scFv: EVHLVESGGALVKPGGSLKLSCAASGFSFSKYGMSWVRQTPDKRLEWVATISSSGSRTYYPDSVKGQFTISRDNAKNTLYLQMSSLKSEDTAMYYCSISWDGAMDYWGQGTSVTVSSGGGGSGGGGSGGGGSDVLMTQTPLSLPVSLGDQASISCKSSQSIVHSNGNTYLEWYLQKPGQSPKLLVYKVSNRFSGVPDRFSGSGSGTDFTLKISRVEAEDLGTYYCFQGSLVPWAFGGGTKLEIK
notes: also called CAG-IPN003-HL-G4S3; H(G4S)3L
As for B5, the binding result is reported as “binds”.

B6: IPN002 F(ab')2_hIgG3_3hinge expressed from TAU_ITR122 (CBA, hGbin, HF.T2AL) (F(ab')2)
VH: EVHLVESGGALVKPGGSLKLSCAASGFSFSKYGMSWVRQTPDKRLEWVATISSSGSRTYYPDSVKGQFTISRDNAKNTLYLQMSSLKSEDTAMYYCSISWDGAMDYWGQGTSVTVSS
VL: DVLMTQTPLSLPVSLGDQASISCKSSQSIVHSNGNTYLEWYLQKPGQSPKLLVYKVSNRFSGVPDRFSGSGSGTDFTLKISRVEAEDLGTYYCFQGSLVPWAFGGGTKLEIK
In the case of B6, the binding result was “binds”.

B7: IPN002 scFv-HA expressed from TAU_ITR151 (CAG, LH, (G4S)2) (scFv)
scFv: DVLMTQTPLSLPVSLGDQASISCKSSQSIVHSNGNTYLEWYLQKPGQSPKLLVYKVSNRFSGVPDRFSGSGSGTDFTLKISRVEAEDLGTYYCFQGSLVPWAFGGGTKLEIKGGGGSGGGGSEVHLVESGGALVKPGGSLKLSCAASGFSFSKYGMSWVRQTPDKRLEWVATISSSGSRTYYPDSVKGQFTISRDNAKNTLYLQMSSLKSEDTAMYYCSISWDGAMDYWGQGTSVTVSS
notes: also called CAG-IPN004-LH-G4S2
Consider B7, for which the binding result was “binds”.

B8: IPN002 scFv-HA expressed from TAU_ITR137 (CAG, HL, G4S) (scFv)
scFv: EVHLVESGGALVKPGGSLKLSCAASGFSFSKYGMSWVRQTPDKRLEWVATISSSGSRTYYPDSVKGQFTISRDNAKNTLYLQMSSLKSEDTAMYYCSISWDGAMDYWGQGTSVTVSSGGGGSDVLMTQTPLSLPVSLGDQASISCKSSQSIVHSNGNTYLEWYLQKPGQSPKLLVYKVSNRFSGVPDRFSGSGSGTDFTLKISRVEAEDLGTYYCFQGSLVPWAFGGGTKLEIK
notes: also called CAG-IPN002-HL-G4S; H(G4S)L
With B8, the binding result is listed as “binds”.

B9: IPN002 scFv-HA expressed from TAU_ITR140 (CAG, HL, (G4S)4) (scFv)
scFv: EVHLVESGGALVKPGGSLKLSCAASGFSFSKYGMSWVRQTPDKRLEWVATISSSGSRTYYPDSVKGQFTISRDNAKNTLYLQMSSLKSEDTAMYYCSISWDGAMDYWGQGTSVTVSSGGGGSGGGGSGGGGSGGGGSDVLMTQTPLSLPVSLGDQASISCKSSQSIVHSNGNTYLEWYLQKPGQSPKLLVYKVSNRFSGVPDRFSGSGSGTDFTLKISRVEAEDLGTYYCFQGSLVPWAFGGGTKLEIK
notes: also called CAG-IPN008-HL-G4S4
As for B9, the binding result was “binds”.

B10: IPN002 scFv-HA expressed from TAU_ITR155 (CAG, LH, (G4S)6) (scFv)
scFv: DVLMTQTPLSLPVSLGDQASISCKSSQSIVHSNGNTYLEWYLQKPGQSPKLLVYKVSNRFSGVPDRFSGSGSGTDFTLKISRVEAEDLGTYYCFQGSLVPWAFGGGTKLEIKGGGGSGGGGSGGGGSGGGGSGGGGSGGGGSEVHLVESGGALVKPGGSLKLSCAASGFSFSKYGMSWVRQTPDKRLEWVATISSSGSRTYYPDSVKGQFTISRDNAKNTLYLQMSSLKSEDTAMYYCSISWDGAMDYWGQGTSVTVSS
notes: also called CAG-IPN0014-LH-G4S6
Turning to B10, the binding result is “binds”.

B11: IPN002 scFv-HA expressed from TAU_ITR150 (CAG, LH, G4S) (scFv)
scFv: DVLMTQTPLSLPVSLGDQASISCKSSQSIVHSNGNTYLEWYLQKPGQSPKLLVYKVSNRFSGVPDRFSGSGSGTDFTLKISRVEAEDLGTYYCFQGSLVPWAFGGGTKLEIKGGGGSEVHLVESGGALVKPGGSLKLSCAASGFSFSKYGMSWVRQTPDKRLEWVATISSSGSRTYYPDSVKGQFTISRDNAKNTLYLQMSSLKSEDTAMYYCSISWDGAMDYWGQGTSVTVSS
notes: also called CAG-IPN004-LH-G4S; L(G4S)H
As to B11, the binding result is on record as “binds”.

B12: IPN002 scFv-HA expressed from TAU_ITR143 (CAG, HL, (G4S)8) (scFv)
scFv: EVHLVESGGALVKPGGSLKLSCAASGFSFSKYGMSWVRQTPDKRLEWVATISSSGSRTYYPDSVKGQFTISRDNAKNTLYLQMSSLKSEDTAMYYCSISWDGAMDYWGQGTSVTVSSGGGGSGGGGSGGGGSGGGGSGGGGSGGGGSGGGGSGGGGSDVLMTQTPLSLPVSLGDQASISCKSSQSIVHSNGNTYLEWYLQKPGQSPKLLVYKVSNRFSGVPDRFSGSGSGTDFTLKISRVEAEDLGTYYCFQGSLVPWAFGGGTKLEIK
notes: also called CAG-IPN0012-HL-G4S8
Turning to B12, the binding result is “binds”.

B13: IPN002 scFv-HA expressed from TAU_ITR152 (CAG, LH, (G4S)3) (scFv)
scFv: DVLMTQTPLSLPVSLGDQASISCKSSQSIVHSNGNTYLEWYLQKPGQSPKLLVYKVSNRFSGVPDRFSGSGSGTDFTLKISRVEAEDLGTYYCFQGSLVPWAFGGGTKLEIKGGGGSGGGGSGGGGSEVHLVESGGALVKPGGSLKLSCAASGFSFSKYGMSWVRQTPDKRLEWVATISSSGSRTYYPDSVKGQFTISRDNAKNTLYLQMSSLKSEDTAMYYCSISWDGAMDYWGQGTSVTVSS
notes: also called CAG-IPN005-LH-G4S3; L(G4S)3H
With B13, the binding result is listed as “binds”.
